Results taken from article PMC4609290 (Molecular cell, 2015).

Columns and labels:
AF10PZP [1] = target: T1, AF10PZP (Homo sapiens, UniProt P55197); experiment: Binding of minimal H3 peptide to the PZP domain; conditions: Figure S1D
T1 sequence (P55197 18-208 isoform P55197-1): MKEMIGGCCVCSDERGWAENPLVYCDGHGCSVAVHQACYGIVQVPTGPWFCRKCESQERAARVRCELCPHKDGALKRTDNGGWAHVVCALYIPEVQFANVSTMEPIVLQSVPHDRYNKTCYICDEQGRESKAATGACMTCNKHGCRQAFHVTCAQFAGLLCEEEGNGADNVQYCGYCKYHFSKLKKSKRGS

AF17PZP = experiment: Histone peptide pull-down with AF17PZP; format: binding, human; conditions: biotinylated H3 peptides, Western blot
AF10PZP [2] = target: T1, AF10PZP; experiment: Histone peptide pull-down with AF10PZP; format: binding; conditions: biotinylated H3 peptides, Western blot; GST-AF10PZP
JADE1PZP = experiment: Histone peptide pull-down with JADE1PZP; format: binding, human; conditions: biotinylated H3 peptides, Western blot
AF10PZP [3] = target: T1, AF10PZP; experiment: ITC binding of H3 peptides to AF10PZP; conditions: standard deviation derived from nonlinear fitting

binding to AF17PZP (peptide pull-down) (AF17PZP) | binding to AF10PZP (peptide pull-down) (AF10PZP [2]) | binding to JADE1PZP (peptide pull-down) (JADE1PZP) | Kd (AF10PZP [3]) | Substance | binding of minimal peptide to the PZP domain (AF10PZP [1])
– | – | – | – | H3(1-36) peptide spanning residues A21 to K27: minimal peptide, segment of H3(1-36) spanning residues A21 to K27 (ATKAARK; UniProt P68431 22-28, looked up, fragment) | sufficient for binding, though with weaker affinity than the longer peptide
disrupted recognition | disrupted recognition | – | – | H3K27 acetylated: Acetylation of H3K27, H3 (aa 15-34) peptides | –
did not bind | did not bind | bound as expected | – | H3_1-21: peptide spanning amino acids 1-21 (H3_1-21; the very N-terminus of H3) | –
abolished | abolished | – | could no longer be detected | H3_15-34 di-methylation at K27: H3_15-34 peptide with di-methylation at K27 | –
